# Assay results from patent US20110052582A1 (Hoffmann-La Roche, published 2011).
# T1: Soluble CDCP1 extracellular domain (CDCP1-ECD) (SEQ ID NO:30) fused to Streptavidin Binding Protein (SBP) (human, UniProt Q9H5V8 30-663)
# T1 construct: also called SBP-CDCP1-ECD
# T1 sequence: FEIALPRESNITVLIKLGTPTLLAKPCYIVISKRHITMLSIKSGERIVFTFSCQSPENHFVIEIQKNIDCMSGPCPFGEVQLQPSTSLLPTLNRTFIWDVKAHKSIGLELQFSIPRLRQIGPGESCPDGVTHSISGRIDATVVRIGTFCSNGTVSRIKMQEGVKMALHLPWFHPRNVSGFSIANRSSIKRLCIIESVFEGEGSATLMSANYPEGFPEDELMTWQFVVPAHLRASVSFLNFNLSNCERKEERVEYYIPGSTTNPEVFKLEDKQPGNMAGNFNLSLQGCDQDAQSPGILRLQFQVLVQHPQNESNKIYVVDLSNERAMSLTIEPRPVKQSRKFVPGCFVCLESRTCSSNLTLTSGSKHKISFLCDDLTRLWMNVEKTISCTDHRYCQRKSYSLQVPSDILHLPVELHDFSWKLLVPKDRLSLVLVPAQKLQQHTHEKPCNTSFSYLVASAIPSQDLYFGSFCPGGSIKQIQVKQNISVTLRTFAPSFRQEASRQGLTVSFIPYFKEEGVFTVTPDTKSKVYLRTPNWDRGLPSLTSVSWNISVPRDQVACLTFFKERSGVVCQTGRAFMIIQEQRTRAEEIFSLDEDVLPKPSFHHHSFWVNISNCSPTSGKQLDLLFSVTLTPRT
# Target: T1, Soluble CDCP1 extracellular domain …
# Assay: ELISA on captured SBP-CDCP1-ECD, ratio relative to chimeric CUB4 (chHC4)
# Procedure: Soluble CDCP1 extracellular domain (CDCP1-ECD) (SEQ ID NO:30) fused to Streptavidin Binding Protein (SBP) was captured on a sreptavidine plate. To define optimal binding of the antibody to SBP-CDCP1-ECD, 384-well polystyrene plates (NUNC, streptavidin-coated) delivered by MicroCoat, Bernried, Germany (ID-No. 1734776-001) have been coated with pure and stepwise diluted HEK293 supernatant (in BSA/IMDM buffer: 100 mg/ml BSA Fraction V, Roche 10735078001, dissolved in Iscove's Modified Dulbeccos Medium). Using a calibration curve of mouse CUB4 antibodies the optimal dilution factor of the HEK293 supernatant in relation to the streptavidin binding capacity of the microtiter plate was identified. For the standard coating, SBP-CDCP1-ECD containing HEK293 supernatant was diluted (between 1:15 and 1:40) and incubated overnight at 2-8° C. (25 μl per well). Intensive washing of the microtiter plate is necessary to remove remaining unbound SBP-CDCP1-ECD.
# Humanized CUB4 antibodies and/or reference antibody (chimeric (chHC4) CUB4 antibody comprising human constant region and mouse VH and VL of SEQ ID NO:1 and 2) were tested either undiluted or using a 12-step-dilution. 12.5 μl per well of each sample was incubated for 90 min at room temperature. After intensive washing using PBS-T (0.1% Tween 20 in PBS) 25 μl of either goat anti-human IgG antibodies coupled with HRP (Jackson ImmunoResearch, Code No: 109-036-098, dilution 1:10000) for human antibodies were added and incubated for 1 hour. After intensive washing the binding of the antibodies was detected with ABTS tablets (Roche Diagnostics GmbH, Cat. No.: 1112422). Absorbance at 405 nm/492 nm was measured using a standard photometer.
Binder,relative binding ratio,binding result
"hHC4-a / hLC4-a (antibody, V domains shown) VH: EVQLVESGGGLVKPGGSLRLSCAASGFTFNSYGMSWVRQAPGKGLEWVSTISSGGSYTYYPDSVKGRFTISRDNAKNSLYLQMNSLRAEDTAVYYCARHPDYDGVWFAYWGQGTLVTVSS VL: EIVLTQSPATLSLSPGERATLSCSVSSSVFYVHWYQQKPGQAPRLLIYDTSKLASGIPARFSGSGSGTDFTLTISSLEPEDFAVYYCQQWNSNPPTFGGGTKVEIK",0.38,–
"hHC4-a / hLC4-b (antibody, V domains shown) VH: EVQLVESGGGLVKPGGSLRLSCAASGFTFNSYGMSWVRQAPGKGLEWVSTISSGGSYTYYPDSVKGRFTISRDNAKNSLYLQMNSLRAEDTAVYYCARHPDYDGVWFAYWGQGTLVTVSS VL: EIVLTQSPATLSLSPGERATLSCSVSSSVFYVHWYQQKPGQAPRLLIYDTSKLASGIPARFSGSGSGTDYTLTISSLEPEDFAVYYCQQWNSNPPTFGGGTKVEIK",0.36,–
"hHC4-a / hLC4-c (antibody, V domains shown) VH: EVQLVESGGGLVKPGGSLRLSCAASGFTFNSYGMSWVRQAPGKGLEWVSTISSGGSYTYYPDSVKGRFTISRDNAKNSLYLQMNSLRAEDTAVYYCARHPDYDGVWFAYWGQGTLVTVSS VL: EIVMTQSPATLSVSPGERATLSCSVSSSVFYVHWYQQKPGQAPRLLIYDTSKLASGIPARFSGSGSGTEFTLTISSLQSEDFAVYYCQQWNSNPPTFGGGTKVEIK",0.35,–
"hHC4-b / hLC4-I (antibody, V domains shown) VH: EVQLVESGGGLVKPGGSLRLSCAASGFTFNSYSMNWVRQAPGKGLEWVSSISSGGSYIYYADSVKGRFTISRDNAKNSLYLQMNSLRAEDTAVYYCARHPDYDGVWFAYWGQGTLVTVSS VL: EIVMTQSPATLSLSPGERATLSCRASSSVFYLSWYQQKPGQAPRLWIYDTSKLASGIPARFSGSGSGTDFTLTISSLQPEDFAVYYCQQWNSNPPTFGGGTKVEIK",–,no binding
"hHC4-b / hLC4-K (antibody, V domains shown) VH: EVQLVESGGGLVKPGGSLRLSCAASGFTFNSYSMNWVRQAPGKGLEWVSSISSGGSYIYYADSVKGRFTISRDNAKNSLYLQMNSLRAEDTAVYYCARHPDYDGVWFAYWGQGTLVTVSS VL: EIVLTQSPATLSLSPGERATLSCRASSSVFYLHWYQQKPGQAPRLWIYDTSKLASGIPARFSGSGSGTDFTLTISSLEPEDFAVYYCQQWNSNPPTFGGGTKVEIK",–,no binding
"hHC4-a / hLC4-d (antibody, V domains shown) VH: EVQLVESGGGLVKPGGSLRLSCAASGFTFNSYGMSWVRQAPGKGLEWVSTISSGGSYTYYPDSVKGRFTISRDNAKNSLYLQMNSLRAEDTAVYYCARHPDYDGVWFAYWGQGTLVTVSS VL: EIVMTQSPATLSVSPGERATLSCSVSSSVFYVHWYQQKPGQAPRLLIYDTSKLASGIPARFSGSGSGTEYTLTISSLQSEDFAVYYCQQWNSNPPTFGGGTKVEIK",0.28,–
"hHC4-b / hLC4-L (antibody, V domains shown) VH: EVQLVESGGGLVKPGGSLRLSCAASGFTFNSYSMNWVRQAPGKGLEWVSSISSGGSYIYYADSVKGRFTISRDNAKNSLYLQMNSLRAEDTAVYYCARHPDYDGVWFAYWGQGTLVTVSS VL: EIVLTQSPATLSLSPGERATMSCRASSSVFYLHWYQQKPGQAPRLWIYDTSKLASGIPARFSGSGSGTDFTLTISSLEPEDFAVYYCQQWNSNPPTFGGGTKVEIK",–,no binding
"hHC4-b / hLC4-J (antibody, V domains shown) VH: EVQLVESGGGLVKPGGSLRLSCAASGFTFNSYSMNWVRQAPGKGLEWVSSISSGGSYIYYADSVKGRFTISRDNAKNSLYLQMNSLRAEDTAVYYCARHPDYDGVWFAYWGQGTLVTVSS VL: EIVMTQSPATLSLSPGERATMSCRASSSVFYLHWYQQKPGQAPRLWIYDTSKLASGIPARFSGSGSGTDFTLTISSLQPEDFAVYYCQQWNSNPPTFGGGTKVEIK",–,no binding
